In the supplement of paper PMC12764529:
± gives the half width of the 95% confidence interval.

test: folding stability dG unfold (combined trypsin and chymotrypsin); higher = more stable
How it was run: (§1)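 How resistant each design was to proteolysis was captured as K50, inferred by Bayesian fitting of sequencing counts. Unfolding free energy was then derived relative to a sequence-predicted unfolded-state K50 and a shared folded-state K50, per protease or combined. Digestion used trypsin and chymotrypsin at 11 threefold-diluted concentrations plus a no-protease condition, on mini-proteins under 80 residues without cysteine in a PA-tagged cDNA display construct. Designs were kept only when AlphaFold2 dimer inter-PAE was above 15.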

Row | Sequence | folding stability dG unfold [kcal/mol]
1 | SAGDLAEYIAETLQDHFPNMEVEVEIDGVEDGYIVIDITIYFRDMKDNENKPRWVPWEIVIPPGEPLPSAGG [r19_8_TrROS] | 3.38 ± 0.19
2 | SAGSLELPPGVSEVVYDPSSGVYSVRYPDGTLVQVDVLYEPDPFVDELHPVAFVSVYSPTSLLATAPLNSAG [r5_109_TrMRF] | 0.979 ± 0.067
3 | SAGGSAGGSDVEVTVTLEYDEETGVLYVTAEVRDKETGRTVRVVVKFDLETNEWEVVAVEVLPSAGGSAGGS [r20_163_TrROS_Hall] | 3.91 ± 0.11
4 | SAKEPVYLVRIRVEIYKDGKPVKELEIEVEVEEGETLEEVLERLREELEKKGYKIVKVEIEVRKLPPPESAG [r14_979_TrROS_Hall] | 4.72 ± 0.19
5 | SAGGSAGGSAGKKIKLPKELKGKKIEVKEVEIEVEVNGKKYKFKAKIVKFDGKIIAIELESAGGSAGGSAGG [r11_21_TrROS_Hall] | 2.98 ± 0.17
6 | SAGGSAGGKTISIPGSIEEIQEKLGGPIDEVEHNKPGSGSYKPKNGKPITIHFDSPEDILDFFKSAGGSAGG [r6_19_TrROS] | 0.206 ± 0.12
7 | SAGGSAGGSAGGMIAVLTYKDGTVRDFGPTASLEEILSIPADEIVRIEVRPVLPELGDLLSAGGSAGGSAGG [r7_190_TrMRF] | 0.251 ± 0.07
8 | SAGGAKITVDDNKITIELPLPNGKPAGSINEPLPDGSSRILVKFPDFVLHLEITPEGIKIASIDNNKDSAGG [r13_619_TrMRF] | 1.51 ± 0.22
9 | SAGGMTLTLIVPSKEEAERLAEALRALLPPGAKLEITVEEVTLKEDLPPDLPEVKEKKYLVVTIRLDSAGGS [r16_795_TrROS_Hall] | 3.34 ± 0.1
10 | SAGGSAGGSAGEKTIKIKVKDKNGKTKTITLKIKNAKFKPGQKIEIVKVNKNGSLEIKLKSAGGSAGGSAGG [r11_733_TrROS_Hall] | 1.6 ± 0.24
11 | SFKLPPGQEIKVKIFILFVDPGDGRMYFIKIEYEITIKPDDDGNLDLDIEPTNIEVVGPMPADEAKEFFKSA [r9_423_TrROS] | 2.34 ± 0.25
12 | SAGGSAGGPMSAEELARFLANEFHKKHGMPPGHRVKIPVKWRDPEDGNEQEVTIEIPIRMPKGDSAGGSAGG [r6_799_TrROS] | 1.2 ± 0.16
13 | SAGMSEEERKAAEEASKPPVKVETLTVTVLVEVDGKLYLVRATITRVVLPDGSIVTELKIEIIPLEDLSAGG [r19_11_TrROS_Hall] | 3.88 ± 0.3
14 | DYKIKIPVARFPDGYWYIRAEIEDPDGETHEYEYPIPMPPGDTFDIDLPEDEPYKIKKIWIYHNGKPQPITS [r1_70_TrROS] | 1.16 ± 0.16
15 | SGPGEEEVAKRAAAEAAPTPDVREVTEEVEIVVPGTGEKVVVPVTALRLPDGTIVPLPEEEIRAIAEKLLSA [r9_1056_JUSTAS] | 0.771 ± 0.13
16 | SAGGEKPKEVEIEEVVVKNEETGEEVRFFRIRDKETDEWYVLAVVRNKDGEEKVVKMSAEEAKKLLESAGGS [r8_421_TrROS_Hall] | 3.59 ± 0.14
17 | SAGMMLIEVEKNGEPVEVAEVKDDEITITLPKEKVRIRIVNADTGEEVEAEATVEDGTITIKLPPGVKLSAG [r5_469_TrROS_Hall] | 0.232 ± 0.19
18 | SAGGMKIVEITEEVPPGAVVRITFEDGSKREIKIPNVAELKGKKITLELPGLKVVKIEVVPAKEGEEVSAGG [r13_587_TrROS_Hall] | 2.05 ± 0.48
19 | SAGGIKIQDPDDGEWIEFPLPIRNPGDGKPYPFKVEIPVRRDPENGRPYFYIEIEFPGNGRKMTFPLRSAGG [r13_262_TrROS] | 0.918 ± 0.057
20 | SPSTTVETTVTIPYTYRLPDGTVLEYNLTISVTASLTNGGISTGDLKSAIDTALAAANIPPGPPDLPLLLRS [r1_175_JUSTAS] | 1.83 ± 0.096
21 | SAKKKKVKKKEIKVTLKLKLPGAKIKSVKVEKKGDKLVITVEIELENGEKLKLTAVFDKDGKIVKIELESAG [r14_719_TrROS_Hall] | 1.74 ± 0.38

test: folding stability dG unfold from chymotrypsin proteolysis; higher = more stable
How it was run: as §1

Row | Sequence | folding stability dG unfold [kcal/mol]
22 | SAGGSKTITIELTTKDGYKFTITVTEKDDKVTANITFLDPTVTPEKIDETIATLEKLAKEAGKNLTISSAGG [r13_774_TrMRF] | 3.66 ± 0.088
23 | SMKIKIEPLPDGSYRLVAEVPEDAEETENLFPLTGKPIVVKREKNKLVIEFDNPEEVELFAEALKKNIPLSA [r9_515_TrMRF] | 1.54 ± 0.084
24 | SAGGSAGGLKPGEEWLILFRIDIEIEPMPPNMSPDMAKRFPNMYHIEVKIDILIIPAEDLKELFSAGGSAGG [r6_831_TrROS] | 3.74 ± 0.042
25 | SAGGSAGGSAGVTIPDPGEEELRKALEAGREVRVAFPESGKVVLVEGPGPELGEEPEPAASAGGSAGGSAGG [r11_94_JUSTAS] | 0.589 ± 0.012
26 | SAGGSAGGGMVKVTLRITYYNSTGPYTSDRVFELPPDEVEALIEAIPPPPDATPEVEVEREPLGSAGGSAGG [r6_428_JUSTAS] | 1.53 ± 0.15
27 | SAGGEETVTLELELEFEPGMTEEELEEKARELAEALAEELGLEVEVEVRVERDEDGRVRVTVEVRVKSAGGS [r16_279_TrROS_Hall] | 2.06 ± 0.051
28 | STLTLEELKERFPELSEEELEALAERLAALPAPVTVTVEVRPAPPPPVEERELSEEELLEARLRPGERVESA [r9_1024_TrROS_Hall] | 1.94 ± 0.056
29 | SAGGSAGGSAGPEILIVVESEEEAKKLAEELARALREAGLPEDAKIKIKIIVLPKEELEKSAGGSAGGSAGG [r17_180_TrROS_Hall] | 2.33 ± 0.048
30 | SEPVPVKIEISTSVDSNGNPSVTITVYNEEKVYTNPLNGATILSVDPNKQYIVIENPALGTKLTLSYTLISA [r9_1186_JUSTAS] | 2.75 ± 0.048
31 | SAGGSAGGSAGMTLEELERLGYKVEVFRHPDTPEVYVRVEYPVPPGGLKRAVIPLKDVKLSAGGSAGGSAGG [r17_311_TrMRF] | 0.93 ± 0.077
32 | SAGGSITSTTTLPDGTTVTTTVLPSGVTVVTTSTLDPATGTVSTTTTTLPPSSATTTTTTTTVPPLTSAGGS [r16_230_JUSTAS] | 2.16 ± 0.029
33 | SAGGSAGGSAGVIPLPGGEEVEYFPEKGEATVRLPDGTVYKVEITKAPDGSLSVTVTPAGSAGGSAGGSAGG [r11_331_JUSTAS] | 1.1 ± 0.035
34 | SKKKKKKKKKKPKTVIIEIDVKEMSEEEIREILKKLPKNVKRVIIIAKSEEEKEKLKELLKEAGYEVEIVSA [r9_919_TrROS_Hall] | 1.94 ± 0.069
35 | SAGGSAGGSAGKETITITLVVTDENGEKYLIRVEAKIDPKTNKITITKIEIIRLDDLKKLSAGGSAGGSAGG [r11_777_TrROS_Hall] | 1.72 ± 0.058
36 | SAGGSAGGVVPLEELAKRLGWSPEFLRELEEKGIKVELERVTPDKVVVTLTEPGTGETKTIELPSAGGSAGG [r6_969_JUSTAS] | 2.82 ± 0.13
37 | SAGGLSLEELADELAQENGWEITEAEPIEFTPNTIRFEVTVRMPDGKRRTIEIEIEIPPPKPPDQPKSAGGS [r8_309_TrROS] | 1.63 ± 0.058
38 | SAGGSAGGSASAEEIAAKIEALFPVKVTVVREEPTPLGRPEVVIEVDAVGVPEELLEEVLKSAGGSAGGSAG [r3_40_JUSTAS] | 0.446 ± 0.033
39 | SAGGSAGGSMSPSESVTLTVVVEEITPGTPKVLLPEEVKEKYPNFEVQVKVEGKPATVTITRPSAGGSAGGS [r12_900_JUSTAS] | 0.444 ± 0.017
40 | SAGGSAGMSTVTVPLTVELVDPNNGNLKKVIERPLTVPAELSLDEVKEIVREEAKKEGLTIAKILLSAGGSA [r15_195_JUSTAS] | -0.0556 ± 0.092
41 | NINPEFMEKIVNEIANRMNQQGWKIKKVDIEPYPNGMIDIKVNGREIEFPWPNGRWFRIKVEAKRVPPEQRS [r1_31_TrROS] | 2.87 ± 0.076
42 | SAGGSMLTPDQVIELPDPNVTATITESEVLEEDPEHGTLLVKYLVVISKNGNPVEEERLLRVPKPVSAGGSA [r2_272_JUSTAS] | -0.476 ± 0.22

Row | Sequence | folding stability dG unfold [kcal/mol]
43 | SAGDLAEYIAETLQDHFPNMEVEVEIDGVEDGYIVIDITIYFRDMKDNENKPRWVPWEIVIPPGEPLPSAGG [r19_8_TrROS] | 4.09 ± 0.051
44 | SAGSLELPPGVSEVVYDPSSGVYSVRYPDGTLVQVDVLYEPDPFVDELHPVAFVSVYSPTSLLATAPLNSAG [r5_109_TrMRF] | 1.07 ± 0.11
45 | SAGGSAGGSDVEVTVTLEYDEETGVLYVTAEVRDKETGRTVRVVVKFDLETNEWEVVAVEVLPSAGGSAGGS [r20_163_TrROS_Hall] | 4.25 ± 0.16
46 | SAKEPVYLVRIRVEIYKDGKPVKELEIEVEVEEGETLEEVLERLREELEKKGYKIVKVEIEVRKLPPPESAG [r14_979_TrROS_Hall] | 5.04 ± 0.15
47 | SAGGSAGGSAGKKIKLPKELKGKKIEVKEVEIEVEVNGKKYKFKAKIVKFDGKIIAIELESAGGSAGGSAGG [r11_21_TrROS_Hall] | 3.31 ± 0.055
48 | SAGGSAGGKTISIPGSIEEIQEKLGGPIDEVEHNKPGSGSYKPKNGKPITIHFDSPEDILDFFKSAGGSAGG [r6_19_TrROS] | -0.0753 ± 0.15
49 | SAGGSAGGSAGGMIAVLTYKDGTVRDFGPTASLEEILSIPADEIVRIEVRPVLPELGDLLSAGGSAGGSAGG [r7_190_TrMRF] | -0.859 ± 0.31
50 | SAGGAKITVDDNKITIELPLPNGKPAGSINEPLPDGSSRILVKFPDFVLHLEITPEGIKIASIDNNKDSAGG [r13_619_TrMRF] | 1.77 ± 0.064
51 | SAGGMTLTLIVPSKEEAERLAEALRALLPPGAKLEITVEEVTLKEDLPPDLPEVKEKKYLVVTIRLDSAGGS [r16_795_TrROS_Hall] | 3.5 ± 0.08
52 | SAGGSAGGSAGEKTIKIKVKDKNGKTKTITLKIKNAKFKPGQKIEIVKVNKNGSLEIKLKSAGGSAGGSAGG [r11_733_TrROS_Hall] | 1.82 ± 0.087
53 | SFKLPPGQEIKVKIFILFVDPGDGRMYFIKIEYEITIKPDDDGNLDLDIEPTNIEVVGPMPADEAKEFFKSA [r9_423_TrROS] | 2.54 ± 0.16
54 | SAGGSAGGPMSAEELARFLANEFHKKHGMPPGHRVKIPVKWRDPEDGNEQEVTIEIPIRMPKGDSAGGSAGG [r6_799_TrROS] | 1.4 ± 0.083
55 | SAGMSEEERKAAEEASKPPVKVETLTVTVLVEVDGKLYLVRATITRVVLPDGSIVTELKIEIIPLEDLSAGG [r19_11_TrROS_Hall] | 4.26 ± 0.33
56 | DYKIKIPVARFPDGYWYIRAEIEDPDGETHEYEYPIPMPPGDTFDIDLPEDEPYKIKKIWIYHNGKPQPITS [r1_70_TrROS] | 1.36 ± 0.15
57 | SGPGEEEVAKRAAAEAAPTPDVREVTEEVEIVVPGTGEKVVVPVTALRLPDGTIVPLPEEEIRAIAEKLLSA [r9_1056_JUSTAS] | 1.07 ± 0.058
58 | SAGGEKPKEVEIEEVVVKNEETGEEVRFFRIRDKETDEWYVLAVVRNKDGEEKVVKMSAEEAKKLLESAGGS [r8_421_TrROS_Hall] | 3.7 ± 0.044
59 | SAGMMLIEVEKNGEPVEVAEVKDDEITITLPKEKVRIRIVNADTGEEVEAEATVEDGTITIKLPPGVKLSAG [r5_469_TrROS_Hall] | -0.794 ± 0.45
60 | SAGGMKIVEITEEVPPGAVVRITFEDGSKREIKIPNVAELKGKKITLELPGLKVVKIEVVPAKEGEEVSAGG [r13_587_TrROS_Hall] | 1.69 ± 0.29
61 | SAGGIKIQDPDDGEWIEFPLPIRNPGDGKPYPFKVEIPVRRDPENGRPYFYIEIEFPGNGRKMTFPLRSAGG [r13_262_TrROS] | 1.12 ± 0.058
62 | SPSTTVETTVTIPYTYRLPDGTVLEYNLTISVTASLTNGGISTGDLKSAIDTALAAANIPPGPPDLPLLLRS [r1_175_JUSTAS] | 2.31 ± 0.098
63 | SAKKKKVKKKEIKVTLKLKLPGAKIKSVKVEKKGDKLVITVEIELENGEKLKLTAVFDKDGKIVKIELESAG [r14_719_TrROS_Hall] | 1.96 ± 0.061
